# According to PMC2134809:
# Target: profilin (Acanthamoeba)
# Assay: affinity chromatography
# Arp2/3 complex, sequence (P53487 whole entry, looked up, one chain of several): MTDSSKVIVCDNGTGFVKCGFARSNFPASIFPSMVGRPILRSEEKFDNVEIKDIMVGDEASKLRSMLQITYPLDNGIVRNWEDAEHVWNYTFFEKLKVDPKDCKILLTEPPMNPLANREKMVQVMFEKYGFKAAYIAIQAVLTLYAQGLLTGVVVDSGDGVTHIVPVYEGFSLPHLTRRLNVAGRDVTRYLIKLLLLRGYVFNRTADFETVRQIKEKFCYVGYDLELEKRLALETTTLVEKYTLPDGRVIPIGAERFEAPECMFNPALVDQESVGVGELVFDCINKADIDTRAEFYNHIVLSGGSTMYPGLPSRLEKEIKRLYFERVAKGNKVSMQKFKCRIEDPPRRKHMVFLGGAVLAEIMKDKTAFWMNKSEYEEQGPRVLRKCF
substance,measurement,value
Arp2/3 complex (from UniProt P53487 1-388),percent of the complex bound to the column that holds profilin,10%
